Laboratory results taken from article PMC12658067.

Key:
[1] = target: C-tail deletion mutant of T7 gp4A' with 17 C-terminal amino acid residues deleted (gp4A' ΔCt) (bacteriophage T7) (UniProt P03692)
[2] = target: M64L mutant of T7 helicase gp4 (T7 gp4A') (bacteriophage T7) (UniProt P03692)
[3] = target: C-tail deletion mutant of T7 gp4A' with 17 C-terminal amino acid residues deleted (gp4A' ΔCt) (bacteriophage T7) (UniProt P03692); remark: listed apart in the source

Substance	fork regression during stalling under torsion (angular optical trap), ΔCt replisome, mean fork position over a minute [1] [bp]	fork regression during stalling under torsion (angular optical trap), WT replisome, mean fork position over a minute [2] [bp]	fork regression during stalling under torsion (angular optical trap), ΔCt exo- replisome, mean fork position over a minute [3] [bp]
Wild-type T7 gp5 DNA polymerase complexed with E. coli thioredoxin (from UniProt P00581 1-704; P0AA25 1-109)	240	80	
Exonuclease deficient mutant of T7 gp5 DNA polymerase (D5A, E7A) complexed with E. coli thioredoxin (from UniProt P00581 1-704; P0AA25 1-109)			340
